Experimental data reported in the Immune Epitope Database (IEDB).

Columns and labels:
HLA-B*40:02 = assay: IEDB peptide-MHC binding, purified MHC/competitive/radioactivity; filed as Kd, often an IC50 or EC50 that approximates it; ≥ and ≤ were set here for values at or beyond the usual limits of such assays
HLA-B*44:02 = assay: as above
HLA-B*40:01 = assay: as above
HLA-B*18:01 = assay: as above
HLA-B*45:01 = assay: as above
HLA-B*44:03 = assay: as above
HLA-B*15:01 = assay: as above
HLA-A*02:06 = assay: as above; conditions: source organism: Dengue virus 3 Martinique/1243/1999
HLA-A*03:01 = assay: IEDB peptide-MHC binding, purified MHC/competitive/fluorescence; filed as Kd, often an IC50 or EC50 that approximates it; ≥ and ≤ were set here for values at or beyond the usual limits of such assays
HLA-A*23:01 = assay: IEDB peptide-MHC binding, purified MHC/competitive/radioactivity; filed as Kd, often an IC50 or EC50 that approximates it; ≥ and ≤ were set here for values at or beyond the usual limits of such assays
HLA-A*26:01 [1] = assay: IEDB peptide-MHC binding, purified MHC/competitive/fluorescence; filed as Kd, often an IC50 or EC50 that approximates it; ≥ and ≤ were set here for values at or beyond the usual limits of such assays
HLA-B*53:01 = assay: IEDB peptide-MHC binding, purified MHC/competitive/radioactivity; filed as Kd, often an IC50 or EC50 that approximates it; ≥ and ≤ were set here for values at or beyond the usual limits of such assays
HLA-B*35:01 = assay: as above
HLA-A*24:02 = assay: as above; conditions: source organism: Dengue virus 3 Martinique/1243/1999
HLA-A*26:01 [2] = assay: as above; conditions: source organism: Dengue virus 3 Martinique/1243/1999
HLA-A*30:01 = assay: as above; conditions: source organism: Dengue virus 1 Brazil/97-11/1997
HLA-A*32:01 = assay: as above
HLA-B*51:01 = assay: as above
[3] = source organism: Mammarenavirus lassaense
[4] = source organism: Mammarenavirus juninense
[5] = source organism: Dengue virus 3 Martinique/1243/1999
[6] = source organism: Dengue virus 4 Philippines/H241/1956
[7] = source organism: Dengue virus 4 Dominica/814669/1981
[8] = source organism: SARS coronavirus Tor2
[9] = source organism: Mammarenavirus machupoense
[10] = source organism: Dengue virus 1 Brazil/97-11/1997
[11] = source organism: Vaccinia virus WR
[12] = source organism: Vaccinia virus Copenhagen
[13] = source organism: Dengue virus 2 Jamaica/1409/1983

Sequence: ADNLITEML
- Kd (HLA-B*40:02; [3]): 415 nM
- Kd (HLA-B*44:02; [3]): 6200 nM
- Kd (HLA-B*40:01; [3]): ≥ 27800 nM
- Kd (HLA-B*18:01; [3]): ≥ 36300 nM
- Kd (HLA-B*45:01; [3]): ≥ 77700 nM
- Kd (HLA-B*44:03; [3]): 12300 nM

Sequence: AETGSQGVYM
- Kd (HLA-B*40:02; [4]): 184 nM
- Kd (HLA-B*44:02; [4]): 304 nM
- Kd (HLA-B*40:01; [4]): 3030 nM
- Kd (HLA-B*18:01; [4]): ≥ 70400 nM
- Kd (HLA-B*45:01; [4]): 13600 nM
- Kd (HLA-B*44:03; [4]): 1040 nM

Sequence: AQMWSLMYF
- Kd (HLA-B*15:01; [5]): 0.33 nM
- Kd (HLA-A*02:06): 12.8 nM

Sequence: ATYQRTRALVR
- Kd (HLA-A*03:01; source organism: Influenza A virus (A/swine/Italy/1509-6/97(H1N1))): 38.9 nM

Sequence: CLIPTAMAF
- Kd (HLA-B*15:01; [6]): 9.43 nM
- Kd (HLA-A*23:01; [6]): 451 nM

Sequence: CLIPTVMAF
- Kd (HLA-B*15:01; [7]): 0.64 nM
- Kd (HLA-A*23:01; [7]): 81.9 nM

Sequence: DEFIQRYKL
- Kd (HLA-B*40:02; [8]): 2500 nM
- Kd (HLA-B*44:02; [8]): 15900 nM
- Kd (HLA-B*40:01; [8]): ≥ 23900 nM
- Kd (HLA-B*18:01; [8]): 47.9 nM
- Kd (HLA-B*45:01; [8]): ≥ 25900 nM
- Kd (HLA-B*44:03; [8]): 8800 nM

Sequence: DELGNILSTY
- Kd (HLA-B*40:02; [9]): 5380 nM
- Kd (HLA-B*44:02; [9]): 1860 nM
- Kd (HLA-B*40:01; [9]): ≥ 69500 nM
- Kd (HLA-B*18:01; [9]): 8.62 nM
- Kd (HLA-B*45:01; [9]): ≥ 70000 nM
- Kd (HLA-B*44:03; [9]): 361 nM

Sequence: DLYRMYSRY
- Kd (HLA-A*26:01 [1]; source organism: Actinobacillus pleuropneumoniae serovar 1 str. 4074): 301 nM

Sequence: DPVVYDAKF
- Kd (HLA-B*53:01; [10]): 648 nM
- Kd (HLA-B*35:01; [10]): 959 nM

Sequence: EEAALCTFL
- Kd (HLA-B*40:02; [8]): 840 nM
- Kd (HLA-B*44:02; [8]): 452 nM
- Kd (HLA-B*40:01; [8]): 172 nM
- Kd (HLA-B*18:01; [8]): 11800 nM
- Kd (HLA-B*45:01; [8]): 37.8 nM
- Kd (HLA-B*44:03; [8]): 168 nM

Sequence: EEGNLLDSYF
- Kd (HLA-B*40:02; [8]): ≥ 70800 nM
- Kd (HLA-B*44:02; [8]): 3.88 nM
- Kd (HLA-B*40:01; [8]): ≥ 41800 nM
- Kd (HLA-B*18:01; [8]): 10700 nM
- Kd (HLA-B*45:01; [8]): ≥ 20200 nM
- Kd (HLA-B*44:03; [8]): 11.7 nM

Sequence: EELSLMYEAL
- Kd (HLA-B*40:02; [9]): 205 nM
- Kd (HLA-B*44:02; [9]): 1790 nM
- Kd (HLA-B*40:01; [9]): 15400 nM
- Kd (HLA-B*18:01; [9]): 1810 nM
- Kd (HLA-B*45:01; [9]): 1590 nM
- Kd (HLA-B*44:03; [9]): 2000 nM

Sequence: EEPVSLLPLS
- Kd (HLA-B*40:02; [9]): 6150 nM
- Kd (HLA-B*44:02; [9]): 5710 nM
- Kd (HLA-B*40:01; [9]): 7390 nM
- Kd (HLA-B*18:01; [9]): ≥ 38400 nM
- Kd (HLA-B*45:01; [9]): 565 nM
- Kd (HLA-B*44:03; [9]): 1870 nM

Sequence: ETIVLLRAF
- Kd (HLA-A*26:01 [1]; source organism: Influenza A virus (A/Wellington/22/2001(H3N2))): 27.6 nM

Sequence: FEIKSAKKF
- Kd (HLA-B*40:02; [8]): 621 nM
- Kd (HLA-B*44:02; [8]): 15.9 nM
- Kd (HLA-B*40:01; [8]): 1710 nM
- Kd (HLA-B*18:01; [8]): 1080 nM
- Kd (HLA-B*45:01; [8]): 18000 nM
- Kd (HLA-B*44:03; [8]): 35.3 nM

Sequence: FLWWGKWRK
- Kd (HLA-A*03:01; source organism: Brucella abortus str. 2308 A): 3.1 nM

Sequence: GEPKTVKVL
- Kd (HLA-B*40:02; [3]): 566 nM
- Kd (HLA-B*44:02; [3]): ≥ 77900 nM
- Kd (HLA-B*40:01; [3]): 18800 nM
- Kd (HLA-B*18:01; [3]): ≥ 77500 nM
- Kd (HLA-B*45:01; [3]): ≥ 77700 nM
- Kd (HLA-B*44:03; [3]): ≥ 78100 nM

Sequence: GETPIAYRNV
- Kd (HLA-B*40:02; [8]): 281 nM
- Kd (HLA-B*44:02; [8]): ≥ 38100 nM
- Kd (HLA-B*40:01; [8]): 1650 nM
- Kd (HLA-B*18:01; [8]): ≥ 59500 nM
- Kd (HLA-B*45:01; [8]): 698 nM
- Kd (HLA-B*44:03; [8]): ≥ 22700 nM

Sequence: HDLPLLCNL
- Kd (HLA-B*40:02; [4]): 15.2 nM
- Kd (HLA-B*44:02; [4]): 1490 nM
- Kd (HLA-B*40:01; [4]): ≥ 38100 nM
- Kd (HLA-B*18:01; [4]): 12200 nM
- Kd (HLA-B*45:01; [4]): ≥ 77700 nM
- Kd (HLA-B*44:03; [4]): 4110 nM

Sequence: HMIAGVFFTF
- Kd (HLA-B*15:01; [5]): 1.47 nM
- Kd (HLA-A*23:01; [5]): 28.9 nM
- Kd (HLA-A*24:02): 98.9 nM
- Kd (HLA-A*26:01 [2]): ≥ 32800 nM

Sequence: KLSSEQLSK
- Kd (HLA-A*03:01; source organism: Trypanosoma cruzi): 108 nM

Sequence: KMRPMFAVG
- Kd (HLA-B*15:01; [10]): 34.6 nM
- Kd (HLA-A*30:01): 14.7 nM

Sequence: LLAISAVYF
- Kd (HLA-B*15:01; [11]): 31.7 nM

Sequence: LLYTANFTF
- Kd (HLA-B*15:01; [11]): 2.43 nM
- Kd (HLA-A*32:01; [11]): 6.72 nM

Sequence: LMRSICVSI
- Kd (HLA-B*15:01; [12]): 63.4 nM
- Kd (HLA-A*32:01; [12]): 380 nM

Sequence: LPAIVREAIK
- Kd (HLA-B*51:01; [13]): ≥ 69600 nM
- Kd (HLA-B*53:01; [13]): 4650 nM
- Kd (HLA-B*35:01; [13]): 5500 nM

Sequence: LPEDIEQMAN
- Kd (HLA-B*51:01; [5]): ≥ 69600 nM
- Kd (HLA-B*53:01; [5]): 2100 nM
- Kd (HLA-B*35:01; [5]): 883 nM

Sequence: LPESLETLM
- Kd (HLA-B*51:01; [6]): 2450 nM
- Kd (HLA-B*53:01; [6]): 557 nM
- Kd (HLA-B*35:01; [6]): 470 nM
